Results on 3 molecules are retold here after patent publication US20040175721A1 (UNIVERSITY OF MASSACHUSETTS A MASSACHUSETTS, published 2004).

T1: LexA-tagged budding yeast Bfa1p (pGP122, LexA-BFA1) (budding yeast, UniProt P47113 1-574, limits assumed)
T1 construct: Construct pGP122 obtained from Elmar Schiebel; also called LexA-Bfa1p; not shown: LexA part of the vector
T1 sequence (looked up): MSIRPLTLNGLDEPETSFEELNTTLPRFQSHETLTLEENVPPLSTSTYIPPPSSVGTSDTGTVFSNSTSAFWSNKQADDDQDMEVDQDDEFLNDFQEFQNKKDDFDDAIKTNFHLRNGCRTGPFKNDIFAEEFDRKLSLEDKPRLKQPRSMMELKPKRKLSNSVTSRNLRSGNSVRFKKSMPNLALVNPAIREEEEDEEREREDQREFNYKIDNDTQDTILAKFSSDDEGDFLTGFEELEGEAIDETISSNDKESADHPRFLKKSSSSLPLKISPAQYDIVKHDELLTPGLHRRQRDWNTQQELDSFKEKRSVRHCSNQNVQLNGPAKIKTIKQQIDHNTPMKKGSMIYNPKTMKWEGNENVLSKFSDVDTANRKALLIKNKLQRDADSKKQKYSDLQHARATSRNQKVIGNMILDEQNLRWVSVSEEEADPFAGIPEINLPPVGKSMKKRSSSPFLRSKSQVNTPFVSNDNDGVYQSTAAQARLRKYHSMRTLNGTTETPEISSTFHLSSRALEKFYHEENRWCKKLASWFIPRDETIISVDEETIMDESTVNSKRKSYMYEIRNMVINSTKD

T2: LexA-tagged budding yeast Bub2p (pGP69, LexA-BUB2) (budding yeast, UniProt P26448 1-306, limits assumed)
T2 construct: Construct pGP69 obtained from Elmar Schiebel; also called LexA-Bub2p; not shown: LexA part of the pEG202-type vector
T2 sequence (looked up): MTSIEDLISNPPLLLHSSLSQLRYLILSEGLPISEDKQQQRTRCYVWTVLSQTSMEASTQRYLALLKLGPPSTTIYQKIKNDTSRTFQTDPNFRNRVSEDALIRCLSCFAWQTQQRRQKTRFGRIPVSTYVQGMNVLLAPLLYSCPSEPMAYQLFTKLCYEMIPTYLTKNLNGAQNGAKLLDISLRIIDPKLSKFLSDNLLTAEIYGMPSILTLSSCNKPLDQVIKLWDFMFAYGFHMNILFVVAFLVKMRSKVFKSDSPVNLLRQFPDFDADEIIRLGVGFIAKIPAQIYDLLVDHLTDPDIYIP

B1: LexA alone (pEG202) (other, UniProt P0A7C2 1-202, looked up)
chain: MKALTARQQEVFDLIRDHISQTGMPPTRAEIAQRLGFRSPNAAEEHLKALARKGVIEIVSGASRGIRLLQEEEEGLPLVGRVAAGEPLLAQQHIEGHYQVDPSLFKPNADFLLRVSGMSMKDIGIMDGDLLAVHKTQDVRNGQVVVARIDDEVTVKRLKKQGNKVELLPENSEFKPIVVDLRQQSFTIEGLAVGVIRNGDWL
B2: human centriolin Nud1 domain (amino acids 127-233 of centriolin) fused to the GAL4 transactivation domain (other, not shown: small tags and cut ends)
chain (part 1 of 2): ANFNQSGNIADSSLSFTFTNSSNGPNLITTQTNSQALSQPIASSNVHDNFMNNEITASKIDDGNNSKPLSPGWTDQTAYNAFGITTGMFNTTTMDDVYNYLFDDEDTPPNPKKE
chain (part 2 of 2): LEVLNLSYNLIGKIEKLDKLLKLRELNLSYNKISKIEGIENMCNLQKLNLAGNEIEHIPVWLGKKLKSLRVLNLKGNKISSLQDISKLKPLQDLISLILVENPVVTL
notes: also called TAD-hNud1; hNud1
B3: GAL4 transactivation domain alone (other, UniProt P04386 768-881, looked up)
chain: B2 chain (part 1 of 2)
notes: also called TAD

For assay [1], the target named is B2. Kind of assay: directed yeast two-hybrid, TAD-hNud1 x LexA control. An excerpt:
(§1) A 321 base pair fragment containing amino acids 127-233 of centriolin were cloned into EcoR I and Sal I sites of pGADT7 (Clontech) to produce a fusion with the GAL4 transactivation domain (TAD). Constructs pEG202 (LexA), pGP69 (LexA-BUB2), pGP122 (LexA-BFA1) and the yeast strain SGY37 were from Elmar Schiebel (Paterson Institute for Cancer Research, Manchester, U.K.). SGY37, which contains a LacZ reporter gene under control of a LexA operator, was transformed with plasmid DNA using LiAc (Ito et al., J Bacteriol, 153:163-168, 1983) and transformants selected for on dropout medium. Methods used were semi-quantitative β-galactosidase assays (Schramm et al., Methods Cell Biol., 67:71-94, 2001) and more quantitative β-galactosidase assays with CPRG (chlorophenol red-b-D-galactopyranoside, Roche) as a substrate per the manufacturer's instructions (Clontech Yeast Protocols Handbook). Co-immunopreciptation of LexA and GAL4 TAD fusion proteins were carried out as previously described (Schramm et al., Methods Cell Biol., 67:71-94, 2001).

Assay [2] addresses T1, LexA-tagged budding yeast Bfa1p …. Briefly: directed yeast two-hybrid.
Source text: as §1

Assay [3] has as its target T2, LexA-tagged budding yeast Bub2p (pGP69, …). Briefly: directed yeast two-hybrid, LexA-BUB2 x TAD control.
Source text: as §1

Consider B1, for which, in assay [1], the binding result was “no binding”.
Regarding B2, the binding result in assay [2] is reported as “no binding”.
Consider B3, for which the binding result in assay [3] was “no binding”.
